One may read the EC50 as the concentration needed to bring the measured effect to its halfway point. Higher therefore signals a less potent agent. In general, Kd refers to the equilibrium constant for the complex coming apart. Read a low Kd as higher affinity. The term koff denotes the rate constant with which the complex falls apart. A low value points to a long-lived complex. What is called kon is a measure of how fast the partners come together. Read a low kon as slower complex formation. A word on the EC50 (read off the curve): it is the concentration at which the effect is half-maximal.

In experiment [1] the target is huROR1-His (human ROR1 ECD AA30-406 with C-terminal His tag, made in house) (human) (UniProt Q01973). The experiment can be described thus: ELISA, huROR1-His coated at 2 µg/mL, goat anti-human Fc-HRP, OD450. (An ELISA detects its analyte on a solid surface through an enzyme-linked reagent.)
Chain of huROR1-His (human ROR1 ECD AA30-406 with C-terminal His tag, made in house) (human) (Q01973 30-406 limits assumed): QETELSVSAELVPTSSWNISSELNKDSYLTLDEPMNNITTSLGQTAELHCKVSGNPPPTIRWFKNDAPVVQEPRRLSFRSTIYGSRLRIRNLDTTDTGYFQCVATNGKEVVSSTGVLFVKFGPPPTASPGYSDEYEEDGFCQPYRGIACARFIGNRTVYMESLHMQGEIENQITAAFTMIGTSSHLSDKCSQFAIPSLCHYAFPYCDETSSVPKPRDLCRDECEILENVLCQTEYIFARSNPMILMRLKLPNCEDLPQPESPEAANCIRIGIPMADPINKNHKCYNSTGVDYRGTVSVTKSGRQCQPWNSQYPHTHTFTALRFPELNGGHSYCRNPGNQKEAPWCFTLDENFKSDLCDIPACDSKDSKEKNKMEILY
Experiment [2] has the same target. The experiment can be described thus: Gator (BLI) Advanced Kinetics; antibody 30 nM, huROR1-His 480-7.5 nM.
For experiment [3], the target named is human ROR1 on cells (full-length human ROR1 on huROR1-HEK293 cells; human ROR1 on A549 and HT-29 tumor cells) (human) (UniProt Q01973). In words: flow cytometry (FACS) on A549 tumor cells, anti-human IgG-Fc secondary antibody, MFI. On the technique in general: A flow cytometer gives signals particle by particle.
Chain of human ROR1 on cells (full-length human ROR1 on huROR1-HEK293 cells; human ROR1 on A549 and HT-29 tumor cells) (human) (Q01973 30-937): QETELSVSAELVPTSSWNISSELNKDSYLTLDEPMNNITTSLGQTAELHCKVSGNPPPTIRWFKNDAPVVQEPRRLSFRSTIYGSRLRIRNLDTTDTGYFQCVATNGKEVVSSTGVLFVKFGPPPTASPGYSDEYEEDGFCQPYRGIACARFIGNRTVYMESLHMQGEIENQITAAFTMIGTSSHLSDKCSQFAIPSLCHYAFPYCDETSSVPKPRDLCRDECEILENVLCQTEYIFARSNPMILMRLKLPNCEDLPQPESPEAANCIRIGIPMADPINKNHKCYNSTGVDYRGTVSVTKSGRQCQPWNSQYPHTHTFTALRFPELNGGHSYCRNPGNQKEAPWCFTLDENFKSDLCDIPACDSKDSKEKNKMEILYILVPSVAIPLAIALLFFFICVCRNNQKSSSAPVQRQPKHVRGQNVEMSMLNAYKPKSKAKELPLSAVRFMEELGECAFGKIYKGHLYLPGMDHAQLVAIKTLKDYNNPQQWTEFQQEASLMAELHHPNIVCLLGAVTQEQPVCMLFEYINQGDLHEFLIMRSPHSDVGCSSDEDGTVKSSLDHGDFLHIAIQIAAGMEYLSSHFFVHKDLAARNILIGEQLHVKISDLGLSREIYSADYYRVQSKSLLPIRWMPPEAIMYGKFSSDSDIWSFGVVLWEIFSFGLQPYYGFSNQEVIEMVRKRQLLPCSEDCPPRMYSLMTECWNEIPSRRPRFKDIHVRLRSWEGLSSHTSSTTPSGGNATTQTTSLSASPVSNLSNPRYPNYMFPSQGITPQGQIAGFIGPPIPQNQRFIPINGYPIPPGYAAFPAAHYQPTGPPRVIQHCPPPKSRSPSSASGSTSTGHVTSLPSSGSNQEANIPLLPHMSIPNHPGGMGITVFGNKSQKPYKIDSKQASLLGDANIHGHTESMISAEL
Experiment [4] deals with huROR1-His (human ROR1 ECD AA30-406 with C-terminal His tag, made in house) (human) (UniProt Q01973). In words: ELISA, huROR1-His coated plate, goat anti-human Fc-HRP, OD450.
In experiment [5] the target is human ROR1 on cells (full-length human ROR1 on huROR1-HEK293 cells; human ROR1 on A549 and HT-29 tumor cells) (human) (UniProt Q01973). The experiment can be described thus: flow cytometry (FACS) on huROR1-HEK293 cells, anti-human IgG-Fc secondary antibody, MFI.
The target is the same in experiment [6]. Described as above. The source holds these as a separate data set.
Experiment [7] addresses huROR1-His (human ROR1 ECD AA30-406 with C-terminal His tag, made in house) (human) (UniProt Q01973). In words: ELISA, huROR1-His coated at 2 µg/mL, goat anti-human Fc-HRP, OD450. The source holds these as a separate data set.
The target is the same in experiment [8]. The experiment can be described thus: Biacore T200 SPR; huROR1-His amine-coupled (~75 RU), antibody 4 and 20 nM as analyte, 1:1 Langmuir fit. Background: In SPR one partner is held on a chip, and binding of the other changes the refractive index at the surface.
The target is the same in experiment [9]. The experiment can be described thus: ELISA, huROR1-His coated plate, goat anti-human Fc-HRP, OD450. This is another data set of the same source.
The target of experiment [10] is human ROR1 on cells (full-length human ROR1 on huROR1-HEK293 cells; human ROR1 on A549 and HT-29 tumor cells) (human) (UniProt Q01973). The experiment can be described thus: flow cytometry (FACS) on HT29 (HT-29) tumor cells, anti-human IgG-Fc secondary antibody, MFI.
Experiment [11] has the same target. In words: flow cytometry (FACS) on A549 tumor cells, anti-human IgG-Fc secondary antibody, MFI. This is another data set of the same source.
Experiment [12] addresses huROR1-His (human ROR1 ECD AA30-406 with C-terminal His tag, made in house) (human) (UniProt Q01973). The experiment can be described thus: ELISA, huROR1-His coated plate, goat anti-human Fc-HRP, OD450. The source holds these as a separate data set.
For experiment [13] the target is unchanged. The description is as above. This is another data set of the same source.
The target is the same in experiment [14]. The description is as above. This is another data set of the same source.

On to “Cirmtuzumab (positive control anti-ROR1 antibody, clone number 99961.1)”, for which the EC50 in [1] was determined as 5.12 ng/mL; in [4], 2.56 ng/mL; in experiment [7], 5.78 ng/mL; in experiment [9], 3.3 ng/mL; in experiment [12], 3 ng/mL; in experiment [13], 3 ng/mL. This substance displayed a concentration giving a half-maximal response (EC50) in experiment [14] of 3.24 ng/mL. Also, the values for the Kd in experiment [2] and in [8] were 13.5 nM and 1.98 nM, respectively. Also, the results for the koff in experiment [2] and in [8] were 0.00712 s⁻¹ and 0.00137 s⁻¹, respectively. Also, the kon in [2] was 529000 M⁻¹ s⁻¹; in experiment [8] it was 694000 M⁻¹ s⁻¹. Moreover, the EC50 (read off the curve) in experiment [3] came to 3 ng/mL; in experiment [5], 60 ng/mL; in [6], 50 ng/mL; in experiment [10], 20 ng/mL; in [11], 10 ng/mL. Moreover, the t 1/2 in [8] is 8.41 min.

Source of the values: patent US20250177546A1, “ROR1-TARGETED BINDING MOLECULE AND USE THEREOF” (SANYOU BIOPHARMACEUTICALS CO., LTD., priority 2022, published 2025).
